This note sets out measurements from patent US20080199851A1.

Where only a bound is given, the exact number is not on record here.

In test [1] the target is A/Beijing/95(H1N1) (Influenza A virus A/Beijing/95 (H1N1)). Kind of test: lateral-flow sandwich, A line: 7304 striped + M4090913-Eu.
Test [2] has as its target B/Shanghai/2002 (Influenza B virus B/Shanghai/2002). The description is as above.
In test [3] the target is Bar-headed GS/QH/15/2005 (H5N1) (Influenza A virus Bar-headed GS/QH/15/2005 (H5N1)). Described as above.
The target of test [4] is A/Taiwan/1/86 (H1N1) (Influenza A virus A/Taiwan/1/86 (H1N1)). The test is described as above.
In test [5] the target is DK/VNM/568/2005 (H5N1) (Influenza A virus DK/VNM/568/2005 (H5N1)). The description is as above.
The target in test [6] is A/Beijing/95(H1N1) (Influenza A virus A/Beijing/95 (H1N1)). As to the kind of experiment: lateral-flow sandwich, B line: M2110171 striped + 2/3-Eu.
The target of test [7] is B/Shanghai/2002 (Influenza B virus B/Shanghai/2002). The description is as above.
The target of test [8] is Bar-headed GS/QH/15/2005 (H5N1) (Influenza A virus Bar-headed GS/QH/15/2005 (H5N1)). Described as above.
Test [9] deals with A/Taiwan/1/86 (H1N1) (Influenza A virus A/Taiwan/1/86 (H1N1)). The test is described as above.
The target in test [10] is DK/VNM/568/2005 (H5N1) (Influenza A virus DK/VNM/568/2005 (H5N1)). The test is described as above.
The next test concerns the target H5N1 virus strain B6. Kind of test: cell-based or functional assay.
Test [11] addresses H5N1 virus CK/IDN/2A/04 (Influenza A virus CK/IDN/2A/04). Kind of test: cell-based or functional assay.
In the next test the target is H5N1 virus strain A7. Kind of test: cell-based or functional assay.
Another test addresses H5N1 virus strain H2. Kind of test: cell-based or functional assay.
In the next test the target is H5N1 virus strain C2. Kind of test: cell-based or functional assay.
Another test deals with H5N1 virus strain A5. As to the kind of experiment: cell-based or functional assay.
A further test concerns the target H5N1 virus strain E2. Kind of test: cell-based or functional assay.
In a further test the target is H5N1 virus strain B5. As to the kind of experiment: cell-based or functional assay.
For another test, the target named is H5N1 virus strain A3. Kind of test: cell-based or functional assay.
The next test addresses H5N1 virus strain A1. As to the kind of experiment: cell-based or functional assay.
For a further test, the target named is H5N1 virus strain D1. Kind of test: cell-based or functional assay.
A further test concerns the target H5N1 virus strain F2. As to the kind of experiment: cell-based or functional assay.
The next test concerns the target H5N1 virus strain A8. As to the kind of experiment: cell-based or functional assay.
The next test concerns the target H5N1 virus strain B1. Kind of test: cell-based or functional assay.
In the next test the target is H5N1 virus strain B8. Kind of test: cell-based or functional assay.
Test [12] deals with H5N1 virus DK/IDN/MS/04 (Influenza A virus DK/IDN/MS/04). Kind of test: cell-based or functional assay.
The target in another test is H5N1 virus strain G1. As to the kind of experiment: cell-based or functional assay.
The target in test [13] is Bar-headed GS/QH/15/2005 (H5N1) (Influenza A virus Bar-headed GS/QH/15/2005 (H5N1)). Kind of test: cell-based or functional assay.
The target of the next test is H5N1 virus strain C3. Kind of test: cell-based or functional assay.
The next test has as its target H5N1 virus strain F3. Kind of test: cell-based or functional assay.
For the next test, the target named is H5N1 virus strain B4. As to the kind of experiment: cell-based or functional assay.
In test [14] the target is H5N1 virus CP Heron/HK/18/05 (Influenza A virus CP Heron/HK/18/05). Kind of test: cell-based or functional assay.
The next test deals with H5N1 virus strain D2. Kind of test: cell-based or functional assay.
Test [15] addresses H5N1 virus CK/HK/213/03 (Influenza A virus CK/HK/213/03). Kind of test: cell-based or functional assay.
Another test addresses H5N1 virus strain A6. Kind of test: cell-based or functional assay.
In another test the target is H5N1 virus strain B3. Kind of test: cell-based or functional assay.
The next test has as its target H5N1 virus strain A2. As to the kind of experiment: cell-based or functional assay.
The target in another test is H5N1 virus strain B2. Kind of test: cell-based or functional assay.
A further test deals with H5N1 virus strain E1. As to the kind of experiment: cell-based or functional assay.
Test [16] addresses H5N1 virus Oriental Magpie Robin/HK/366/2006 (Influenza A virus Oriental Magpie Robin/HK/366/2006). As to the kind of experiment: cell-based or functional assay.
The next test has as its target H5N1 virus strain H1. Kind of test: cell-based or functional assay.
Another test has as its target H5N1 virus strain B7. As to the kind of experiment: cell-based or functional assay.

On to anti-Flu A Medix 7304 antibody, for which the Signal/noise of test line in [1] is 896; in [2], 3.9; in test [3], 246; in [4], 493; in test [5] it was 607.
Consider “Anti-Flu B nucleoprotein M2110171 (Fitzgerald) (antibody)”, for which the Signal/noise of test line was determined as 0.5 in test [6]; 376 in test [7]; 0.6 in test [8]; 0.4 in test [9]; 1 in [10].

B1: 10F7 single chain antibody (scFv)
scFv: QVQLQQPGAELVKPGASVKLSCKASGYTFTSYWMHWVKQRPGQGLEWIGEIDPSDSYTNYNQKFKGKATLTVDKSSSTAYMQLSSLTSEDSAVYYCARGGTGDFHYAMDYWGQGTSVTVSSGGGGSDILMTQSPSSMSVSLGDTVSITCHASQGISSNIGWLQQKPGKSFKGLIYHGTNLEDGVPSRFSGSGSGADYSLTISSLESEDFADYYCVQYVQFPYTFGGGTKLEIKR
For B1, the HI titer n (titer = 2^n) (n-th power of 2) in the test with H5N1 virus strain B6 is 7; in the test with H5N1 virus strain A7, 6.5; with H5N1 virus strain H2 it was 0; with H5N1 virus strain C2 it was 2; in the test with H5N1 virus strain A5, above 8; in the test with H5N1 virus strain E2, 0. The HI titer n (titer = 2^n) (n-th power of 2) in the test with H5N1 virus strain B5 is 0; in the test with H5N1 virus strain A3 it was above 8; with H5N1 virus strain A1, above 8; in the test with H5N1 virus strain D1, 2.5; with H5N1 virus strain F2 it was 0; with H5N1 virus strain A8, 6. Besides, the HI titer n (titer = 2^n) (n-th power of 2) with H5N1 virus strain B1 is 7; in the test with H5N1 virus strain B8, 7; with H5N1 virus strain G1 it was 0; with H5N1 virus strain C3, 1; with H5N1 virus strain F3, 0; with H5N1 virus strain B4, above 8. The HI titer n (titer = 2^n) (n-th power of 2) was 2.5 in the test with H5N1 virus strain D2; 7.5 with H5N1 virus strain A6; above 8 with H5N1 virus strain B3; above 8 with H5N1 virus strain A2; 0 with H5N1 virus strain B2; 0 with H5N1 virus strain E1. For the same molecule, the HI titer n (titer = 2^n) (n-th power of 2) in the test with H5N1 virus strain H1 was below 1; with H5N1 virus strain B7, 7. For the same molecule, the neutralization: dilution of 10F7 scFv (fold dilution) in test [11] was 32; in [12], 16; in [13], 16; in test [14], 8; in [15], below 1; in [16] it was below 1.

B2: 4D1 single chain antibody (scFv)
scFv: QVQLQQPGAELVKPGASVNLSCKASGYTFTSYWMHWVKQRPGQGLEWIGEIDPSDSFTTYNQNFKDRATLTVDKSSSTAYMQLRSLTSEDSAVYYCARGGPGDFRYAMDYWGQGTSVTVSSGGGGSDILMTQSPSSMSVSLGDTVSITCHASQGISSNIGWLQQKPGKSFKGLIYHGTNLEDGVPSRFSGSGSGADYSLTISSLESEDFADYYCVQYVQFPYTFGGGTKLEIKRA
As to B2, the HI titer n (titer = 2^n) (n-th power of 2) is above 8 with H5N1 virus strain B6; 6 with H5N1 virus strain A7; 4 with H5N1 virus strain H2; above 8 in the test with H5N1 virus strain C2; above 8 with H5N1 virus strain A5; 1 in the test with H5N1 virus strain E2. The HI titer n (titer = 2^n) (n-th power of 2) with H5N1 virus strain B5 is 0; with H5N1 virus strain A3 it was above 8; with H5N1 virus strain A1 it was above 8; with H5N1 virus strain D1 it was above 8; in the test with H5N1 virus strain F2, 5; in the test with H5N1 virus strain A8, above 8. For the same molecule, the HI titer n (titer = 2^n) (n-th power of 2) in the test with H5N1 virus strain B1 is above 8; with H5N1 virus strain B8, above 8; with H5N1 virus strain G1, 3.5; with H5N1 virus strain C3, above 8; with H5N1 virus strain F3, 3; in the test with H5N1 virus strain B4, above 8. Moreover, the HI titer n (titer = 2^n) (n-th power of 2) with H5N1 virus strain D2 is 7.5; with H5N1 virus strain A6 it was 7; with H5N1 virus strain B3, above 8; with H5N1 virus strain A2, above 8; in the test with H5N1 virus strain B2 it was 0; with H5N1 virus strain E1, 1. Also, the figures for the HI titer n (titer = 2^n) (n-th power of 2) with H5N1 virus strain H1 and in the test with H5N1 virus strain B7 were 6 and above 8, respectively.

B3: 8H5 single chain antibody (scFv, V domains shown)
VH: QVQLQQSGAELMKPGASVKISCKATGYTFSNYWIEWIKQRPGHGLEWIGEILPGSDRTNYNGKFKGKATFTADTSSNTAHMQLSSLTSEDSAVYYCANRYDGYYFGLDYWGQGTSVAVSS
VL: EIVLTQSPAIMSASLGEKVTMSCRASSSVNFVYWYQQRSDASPKLLIYYSSNLAPGVPPRFSGSGSGNSYSLTISGLEGEDAATYYCQHFTSSPYTFGGGTNLEIKR
Turning to B3, the HI titer n (titer = 2^n) (n-th power of 2) with H5N1 virus strain B6 amounted to 3.5; in the test with H5N1 virus strain A7, 3; with H5N1 virus strain H2, 0; with H5N1 virus strain C2, 1; with H5N1 virus strain A5 it was 4; with H5N1 virus strain E2, 0. The HI titer n (titer = 2^n) (n-th power of 2) in the test with H5N1 virus strain B5 was 0; with H5N1 virus strain A3, 3.5; with H5N1 virus strain A1, 3.5; with H5N1 virus strain D1, 2.5; in the test with H5N1 virus strain F2, 0; with H5N1 virus strain A8, 2.5. Moreover, the HI titer n (titer = 2^n) (n-th power of 2) with H5N1 virus strain B1 came out at 4; in the test with H5N1 virus strain B8, 3; with H5N1 virus strain G1 it was 0; with H5N1 virus strain C3, 0; with H5N1 virus strain F3 it was 0; in the test with H5N1 virus strain B4 it was 5. In addition, the HI titer n (titer = 2^n) (n-th power of 2) in the test with H5N1 virus strain D2 stood at 2; with H5N1 virus strain A6, 3; with H5N1 virus strain B3, 5; with H5N1 virus strain A2 it was 4.5; in the test with H5N1 virus strain B2, 0; with H5N1 virus strain E1 it was 0. The HI titer n (titer = 2^n) (n-th power of 2) with H5N1 virus strain H1 worked out at 0; with H5N1 virus strain B7 it was 4.
